Assay results reported in US8524947B2, “Acylsulfonamides and processes for producing the same” (University of South Florida, priority 2008, dated 2013).

Key:
Bcl-XL [1] = target: T1, Bcl-XL (Homo sapiens, UniProt Q07817); test: Suppression of Bcl-XL-templated incubations of (SZ4) and (TA2) by BH3 peptides (LC/MS-SIM); format: biochemical; settings: for amount of acylsulfonamide (SZ4TA2) in Bcl-XL incubations containing the peptide: compared to the Bcl-XL incubations containing wild type Bak BH3 and Bim peptides
T1 sequence (Q07817 whole entry): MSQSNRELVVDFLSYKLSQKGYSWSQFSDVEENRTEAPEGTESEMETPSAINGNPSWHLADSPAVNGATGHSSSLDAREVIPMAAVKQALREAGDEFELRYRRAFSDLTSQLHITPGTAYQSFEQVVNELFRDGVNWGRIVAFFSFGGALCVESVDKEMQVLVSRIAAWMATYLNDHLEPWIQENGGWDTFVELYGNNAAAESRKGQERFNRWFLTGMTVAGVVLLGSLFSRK
Experimental: In a 96-well plate, one thio acid building block (1 μL of a 2 mM solution in methanol) and one sulfonyl azide building block (1 μL of a 2 mM solution in methanol) were added to a solution of Bcl-XL (98 μL of a 2 μM Bcl-XL solution in buffer (58 mM Na2HPO4, 17 mM NaH2PO4, 68 mM NaCl, 1 mM NaN3, pH=7.40)). The 96-well plate was sealed and incubated at 38.5° C. for six hours. The incubation samples were then subjected to liquid chromatography combined with mass spectrometry analysis in the selected ion mode (LC-MS-SIM, Zorbax SB-C18 preceded by a Phenomenex C18 guard column, electrospray ionization and mass spectroscopic detection in the positive selected ion mode, tuned to the expected molecular mass of the product). The TGS hit compound was identified by the mass and retention time. As a control, identical building block combinations were incubated in buffer without Bcl-XL and subjected to LC/MS-SIM analysis. Comparison of the LC-MS-SIM chromatograms of these control incubations with the chromatograms of the Bcl-XL containing incubations allows to determine whether the protein is templating the corresponding amidation reactions or not. For the Bcl-XL containing incubation sample showing acylsulfonamide formation, a second control has been undertaken. Synthetically prepared acylsulfonamide was subjected to LC/MS-SIM analysis and the retention time was compared with the retention time identified in the Bcl-XL containing incubation.
Additional control experiments have been performed to test whether the Bcl-XL-templated reaction occurs at the BH3 binding site on Bcl-XL. Reactive building blocks (SZ4) and (TA2) were incubated with Bcl-XL and pro-apoptotic Bak BH3 peptide. Bak is one of the natural Bcl-XL ligands and theoretically competes with the reactive building blocks for binding on Bcl-XL during the incubations. The influence of Bak BH3 peptide on the Bcl-XL-templated reaction was studied at different ratios of Bak BH3 peptide and Bcl-XL (FIG. 10).
Additional control experiments have been performed with Bim, mutant Bim, and mutant Bak. […]

Bcl-XL [2] = target: T1, Bcl-XL; settings: compared to wildtype Bak BH3 and Bim peptides; cited from earlier work

## Bak BH3 peptide: pro-apoptotic Bak BH3 peptide, a natural Bcl-XL ligand; sequence CMGQVGRQLAIIGDDINRRYDS
Bcl-XL [1]; 20 μM Bak BH3 peptide, (SZ4) and (TA2) with Bcl-XL, compared to the Bcl-XL incubation without Bak BH3
  Bcl-XL-templated reaction (formation of SZ4TA2): significantly suppressed

## mutant Bak: mutant Bak BH3 peptide; sequence CMGQVGRQAAIIGADINRRYDS
Bcl-XL [2]
  affinity towards Bcl-XL: lower affinity
Bcl-XL [1]
  amount of acylsulfonamide (SZ4TA2) in Bcl-XL incubations containing the peptide: increased amount

## mutant Bim: mutant Bim BH3 peptide; sequence CEIWIAQEARRIGAEFNAYYAR
Bcl-XL [2]
  affinity towards Bcl-XL: lower affinity
Bcl-XL [1]
  amount of acylsulfonamide (SZ4TA2) in Bcl-XL incubations containing the peptide: increased amount
